Laboratory results from patent US20190375823A1.

Assays:
CD19 on Raji B cells = CD19 on Raji B cells (UniProt P15391); assay: cell-based or functional assay
CD3 on Jurkat T cells = CD3 on Jurkat T cells (UniProt P07766); assay: cell-based or functional assay
[1] = biological target: HER2 and HER3 on cells (MALME-3M or SKOV cells); assay: FACS; column head prints Bmax (MALME 20120603); set-up: unit not given here
[2] = biological target: HER2 and HER3 on cells (MALME-3M or SKOV cells); assay: FACS on SKOV-3 cells, FITC-labeled anti-HSA detection
[3] = biological target: HER2 and HER3 on cells (MALME-3M or SKOV cells); assay: FACS on MALME-3M cells (2012529), FITC-labeled anti-HSA antibodies
[4] = biological target: HER2 and HER3 on cells (MALME-3M or SKOV cells); assay: FACS on SKOV cells (20120803), FITC-labeled anti-HSA antibodies; apparent Kd
[5] = biological target: HER2 and HER3 on cells (MALME-3M or SKOV cells); assay: FACS on MALME-3M cells (20120529), FITC-labeled anti-HSA antibodies; apparent Kd
[6] = biological target: HER2 and HER3 on cells (MALME-3M or SKOV cells); assay: FACS on MALME-3M cells, FITC-labeled anti-HSA antibodies; lower end of the range
[7] = biological target: HER2 and HER3 on cells (MALME-3M or SKOV cells); assay: FACS on MALME-3M cells, FITC-labeled anti-HSA antibodies; upper end of the range

Sequence of CD3 on Jurkat T cells (P07766 23-207): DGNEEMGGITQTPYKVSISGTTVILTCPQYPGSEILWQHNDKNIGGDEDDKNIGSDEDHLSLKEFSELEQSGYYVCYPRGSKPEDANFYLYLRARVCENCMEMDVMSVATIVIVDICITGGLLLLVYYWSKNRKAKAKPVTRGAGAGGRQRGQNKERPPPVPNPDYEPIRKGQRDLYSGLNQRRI
Sequence of CD19 on Raji B cells (P15391 20-556 limits assumed): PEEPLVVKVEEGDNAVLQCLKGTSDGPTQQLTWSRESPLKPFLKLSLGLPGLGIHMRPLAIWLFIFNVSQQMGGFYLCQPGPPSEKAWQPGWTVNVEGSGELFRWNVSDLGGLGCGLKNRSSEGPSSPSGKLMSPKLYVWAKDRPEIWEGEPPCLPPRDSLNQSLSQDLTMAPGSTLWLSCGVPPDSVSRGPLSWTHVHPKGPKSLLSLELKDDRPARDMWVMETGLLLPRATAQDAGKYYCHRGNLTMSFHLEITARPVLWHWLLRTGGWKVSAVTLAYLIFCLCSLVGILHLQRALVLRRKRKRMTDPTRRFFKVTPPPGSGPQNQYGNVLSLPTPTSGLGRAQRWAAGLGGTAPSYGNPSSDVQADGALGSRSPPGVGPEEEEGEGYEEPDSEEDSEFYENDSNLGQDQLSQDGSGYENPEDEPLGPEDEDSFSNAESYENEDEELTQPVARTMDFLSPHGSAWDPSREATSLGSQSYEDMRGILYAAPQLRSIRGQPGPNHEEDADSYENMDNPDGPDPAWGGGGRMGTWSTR

Row | Substance | Whole cell bridging by FACS (Jurkat-violet + RAJI-FarRed): % of events labeled both violet and Far-red; needs binding of both CD3 and CD19 (% of total cells) (CD19 on Raji B cells) | Whole cell bridging by FACS (Jurkat-violet + RAJI-FarRed): % of events labeled both violet and Far-red; needs binding of both CD3 and CD19 (% of total cells) (CD3 on Jurkat T cells) | Bmax [1] | EC50 (read off the curve) [2] [nM] | Bmax [3] | Kd [4] [nM] | Kd [5] [nM] | Kd [6] [nM] | Kd [7] [nM]
1 | v891: anti-CD3xCD19 BiTE control (bispecific antibody) | 21 | 21 |  |  |  |  |  |  | 
2 | v1087: benchmark control variant of MM-111 (anti-Her3 H3 scFv - AAS - albumin - AAAL - anti-Her2 B1D2 scFv) (bispecific antibody) |  |  | 6580 | 10 | 1470 | 10.7 | 12000 | 5 | 55
